Reference: publication PMC10695385

Biological target: SYD-2/Liprin-α N-terminal fragment (coiled-coils and IDR) (UniProt Q21049)
Experiment: GFP-trap pull-down, Coomassie gel
Details: reference: SAD-1-phosphorylated wild-type SAM; sites S896,S901,S904

In the case of “SYD-2/Liprin-α SAM domains, 844-1139 (from UniProt Q21049) SAD-1-phosphorylated SAM(3A)”, the “binding against the reference” value is reported as “stronger”.
